B1: mRXR-α (receptor)
chain: MDTKHFLPLDFSTQVNSSSLNSPTGRGSMAVPSLHPSLGPGIGSPLGSPGQLHSPISTLSSPINGMGPPFSVISSPMGPHSMSVPTTPTLGFGTGSPQLNSPMNPVSSTEDIKPPLGLNGVLKVPAHPSGNMASFTKHICAICGDRSSGKHYGVYSCEGCKGFFKRTVRKDLTYTCRDNKDCLIDKRQRNRCQYCRYQKCLAMGMKREAVQEERQRGKDRNENEVESTSSANEDMPVEKILEAELAVEPKTETYVEANMGLNPSSPNDPVTNICQAADKQLFTLVEWAKRIPHFSELPLDDQVILLRAGWNELLIASFSHRSIAVKDGILLATGLHVHRNSAHSAGVGAIFDRVLTELVSKMRDMQMDKTELGCLRAIVLFNPDSKGLSNPAEVEALREKVYASLEAYCKHKYPEQPGRFAKLLLRLPALRSIGLKCLEHLFFFKLIGDTPIDTFLMEMLEAPHQAT
B2: purified HeLa cell RBF (HAP-TSK) (receptor)
chain: MSWAARPPFLPQRHAAGQCGPVGVRKEMHCGVASRWRRRRPWLDPAAAAAAAVAGGEQQTPEPEPGEAGRDGMGDSGRDSRSPDSSSPNPLPQGVPPPSPPGPPLPPSTAPTLGGSGAPPPPPMPPPPLGSPFPVISSSMGSPGLPPPAPPGFSGPVSSPQINSTVSLPGGGSGPPEDVKPPVLGVRGLHCPPPPGGPGAGKRLCAICGDRSSGKHYGVYSCEGCKGFFKRTIRKDLTYSCRDNKDCTVDKRQRNRCQYCRYQKCLATGMKREAVQEERQRGKDKDGDGEGAGGAPEEMPVDRILEAELAVEQKSDQGVEGPGGTGGSGSSPNDPVTNICQAADKQLFTLVEWAKRIPHFSSLPLDDQVILLRAGWNELLIASFSHRSIDVRDGILLATGLHVHRNSAHSAGVGAIFDRVLTELVSKMRDMRMDKTELGCLRAIILFNPDAKGLSNPSEVEVLREKVYASLETYCKQKYPEQQGRFAKLLLRLPALRSIGLKCLEHLFFFKLIGDTPIDTFLMEMLEAPHQLA

Assays:
[1] = target: mRXR-α (mouse)
[2] = target: bacterially-expressed hRAR-γ (human) (UniProt P13631); experiment: complementation gel retardation with bacterially-expressed hRAR-γ on β-RARE; cpm in the complex per µg of protein of the purification step

| Binder | OMPdecase activity of the DR1-URA3 reporter in yeast [1] [fold] | Specific Activity (cpm/µg) [2] [cpm/µg] |
| --- | --- | --- |
| B1 | 30 | – |
| B2 | – | 7.75e+06 |

Reference: patent publication US6635429B1
